Measured values published in patent publication US20230416341A1, “IMPROVED THROMBIN INHIBITORS FOR TREATMENT OF THROMBOEMBOLIC CONDITIONS” (priority 2020, published 2023).

Assays:
[1] = target: T1, human α-thrombin (Haematologic Technologies) (human), P00734; assay: thrombin inhibition; sulfated at Y32; conditions: chains peptide; modification not given
[2] = target: T1, human α-thrombin (Haematologic …); assay: inhibition of amidolytic activity of human α-thrombin (0.2 nM enzyme, chromogenic substrate Tos-Gly-Pro-Arg-pNA), tight-binding Morrison fit
[3] = target: T1, human α-thrombin (Haematologic …); assay: thrombin inhibition; unsulfated; conditions: chains peptide; modification not given
[4] = target: T1, human α-thrombin (Haematologic …); assay: inhibition of amidolytic activity of human α-thrombin; reference is unsulfated SEQ ID No:1
[5] = target: T1, human α-thrombin (Haematologic …); assay: thrombin inhibition; sulfated at Y32 and Y35; conditions: chains peptide; modification not given
[6] = target: T1, human α-thrombin (Haematologic …); assay: thrombin inhibition; sulfated at Y35; conditions: chains peptide; modification not given
[7] = target: T1, human α-thrombin (Haematologic …); assay: thrombin inhibition; sulfated at Y33; conditions: chains peptide; modification not given
[8] = target: T1, human α-thrombin (Haematologic …); assay: thrombin inhibition; unsulfated; unit from column head of Figure 1 table; conditions: chains peptide; modification not given
[9] = target: T1, human α-thrombin (Haematologic …); assay: thrombin inhibition; sulfated at Y36; conditions: chains peptide; modification not given
[10] = target: T1, human α-thrombin (Haematologic …); assay: inhibition of amidolytic activity of human α-thrombin; reference is unsulfated SEQ ID No:2
[11] = target: T1, human α-thrombin (Haematologic …); assay: thrombin inhibition; sulfated at Y33 and Y36; conditions: chains peptide; modification not given

B1: SEQ ID No:1 (MDL-2) Y32 (sulfated at Y32) (peptide)
chain: YPESDSAKDDGNQEKEKALLVKVQERSDDGDYDEYDNDETTHTPDPSAPTARPRIREHQA
- Ki [1]: 1.99 nM
- Ki [2]: < 3 nM

B2: SEQ ID No:1 (MDL-2) Un (unsulfated) (protein)
chain: YPESDSAKDDGNQEKEKALLVKVQERSDDGDYDEYDNDETTHTPDPSAPTARPRIREHQA
- Ki [3]: 27.2 nM

B3: SEQ ID No:1 (MDL-2) DS (sulfated at Y32 and Y35) (peptide)
peptide: YPESDSAKDDGNQEKEKALLVKVQERSDDGDYDEYDNDETTHTPDPSAPTARPRIREHQA
modifications: not checked
- fold more potent than the unsulfated counterpart [4]: > 100 fold
- Ki [5]: 0.156 nM
- Ki [2]: < 3 nM

B4: SEQ ID No:1 (MDL-2) Y35 (sulfated at Y35) (peptide)
chain: YPESDSAKDDGNQEKEKALLVKVQERSDDGDYDEYDNDETTHTPDPSAPTARPRIREHQA
- Ki [6]: 2.77 nM
- Ki [2]: < 3 nM

B5: SEQ ID No:2 (MDL-1) Y33 (sulfated at Y33) (peptide)
peptide: YPERDSAKDGNEEQERALPVNVQERGEVADADYDDYDEEGTTPTVDPTAQTARPRLQGNQS
modifications: not checked
- Ki [2]: < 20 nM
- Ki [7]: 3.59 nM

B6: SEQ ID No:2 (MDL-1) Un (unsulfated) (protein)
chain: YPERDSAKDGNEEQERALPVNVQERGEVADADYDDYDEEGTTPTVDPTAQTARPRLQGNQS
- Ki [8]: 73.8 nM

B7: SEQ ID No:2 (MDL-1) Y36 (sulfated at Y36) (peptide)
peptide: YPERDSAKDGNEEQERALPVNVQERGEVADADYDDYDEEGTTPTVDPTAQTARPRLQGNQS
modifications: not checked
- Ki [2]: < 20 nM
- Ki [9]: 17.6 nM

B8: SEQ ID No:2 (MDL-1) DS (sulfated at Y33 and Y36) (peptide)
peptide: YPERDSAKDGNEEQERALPVNVQERGEVADADYDDYDEEGTTPTVDPTAQTARPRLQGNQS
modifications: not checked
- fold more potent than the unsulfated counterpart [10]: 10 fold
- Ki [2]: < 20 nM
- Ki [11]: 2.06 nM
